Legend:
[1] = molecular target: in vitro-translated human Nanog (hNanog), Q9H9S0
[2] = molecular target: T1, mouse Nanog (mNanog), Q80Z64
T1 chain: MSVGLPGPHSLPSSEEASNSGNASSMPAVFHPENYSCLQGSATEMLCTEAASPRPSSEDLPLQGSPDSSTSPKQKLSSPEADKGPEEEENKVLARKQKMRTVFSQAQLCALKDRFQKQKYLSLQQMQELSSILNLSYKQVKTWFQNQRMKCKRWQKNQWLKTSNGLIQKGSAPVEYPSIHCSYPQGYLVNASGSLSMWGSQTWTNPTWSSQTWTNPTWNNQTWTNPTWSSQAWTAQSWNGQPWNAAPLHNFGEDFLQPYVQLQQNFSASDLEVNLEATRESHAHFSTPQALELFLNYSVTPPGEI

in vitro-translated human Nanog (hNanog), Q9H9S0, sequence (Q9H9S0 whole entry): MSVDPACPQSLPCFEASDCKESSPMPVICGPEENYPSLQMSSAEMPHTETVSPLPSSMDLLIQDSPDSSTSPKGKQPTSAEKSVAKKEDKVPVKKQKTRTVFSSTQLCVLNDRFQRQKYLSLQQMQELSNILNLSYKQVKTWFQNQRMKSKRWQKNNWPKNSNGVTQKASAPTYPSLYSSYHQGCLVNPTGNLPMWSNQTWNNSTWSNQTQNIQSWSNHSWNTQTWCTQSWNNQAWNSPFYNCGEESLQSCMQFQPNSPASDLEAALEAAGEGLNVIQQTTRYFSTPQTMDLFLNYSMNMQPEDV

B1: recombinant active caspase-3 (protein)
chain: SGISLDNSYKMDYPEMGLCIIINNKNFHKSTGMTSRSGTDVDAANLRETFRNLKYEVRNKNDLTREEIVELMRDVSKEDHSKRSSFVCVLLSHGEEGIIFGTNGPVDLKKITNFFRGDRCRSLTGKPKLFIIQACRGTELDCGIETDSGVDDDMACHKIPVEADFLYAYSTAPGYYSWRNSKDGSWFIQSLCAMLKQYADKLEFMHILTRVNRKVATEFESFSFDATFHAKKQIPCIVSMLTKELYFYH
Sox2
  in vitro caspase-3 cleavage assay: remained uncleaved (data not shown)
Oct4
  in vitro caspase-3 cleavage assay: remained uncleaved (data not shown)
[1]
  in vitro caspase-3 cleavage assay: Caspase-3 cleaved human (h) Nanog in vitro
[2]
  cleavage of immunoprecipitated mNanog by recombinant caspase: Only caspase-9 effectively cleaved mNanog into a 27 kDa fragment
  in vitro caspase-3 cleavage assay: very little or no cleavage of recombinant mNanog by caspase-3 was observed

From patent US20110263014
